In patent US20260103686A1, “MICROBIAL STRAIN, PROTEIN, AND METHOD FOR PRODUCING GALLIC ACID USING MICROBIAL STRAIN OR PROTEIN” (UNIVERSITY OF TSUKUBA, priority 2022, published 2026):

B1: PoPobA: Polaromonas sp.-derived PobA, protocatechuic acid 5-hydroxylase (SEQ ID NO: 22) (protein, listed as Polaromonas sp.)
chain: MRTQVGIVGAGPAGLMLSHMLHLEGIESVIIERASREHVQSRLRAGVLEHGTVDMLRELGLGERIGKIGLEQHAIDFRFGGESHRLDFHQATNGRSAWVYPQHELVTDLMNARMQAGAEILFETPVTRIDGLHTSKPTVHFEQGGEPRELVCDFVVGCDGFRGVCRDAIPDTVLKTYDRVYPFGWLGILAEAPAPTREITWGCHEEGFAMLSIRSPSVTRLYLQCEPDDDPDHWSDDHIWAELHKRLDVPGMPPVNEGKIMQKGVTAMRSFLAEPMQYGKLFLAGDAAHIVPPTGAKGLNSAMADVKVLGRGLAEKYRRGADHLLERYSQICLKRMWLVQRFSAGLCTMVHQFPGDNAFVRRLQRADLDYMTGTAAGRLAFSENFTGLPIE
B2: HgPobA: Hylemonella gracilis-derived PobA, protocatechuic acid 5-hydroxylase (SEQ ID NO: 20) (protein, listed as Hylemonella gracilis)
chain: MSYPTRTQVAIIGAGPSGLMLGALLHKAGIDTVVLERQSGDYVLGRIRAGVLEQVTMDLMDEIGVGARMHQEGLVHGGFDMLFQGQRHRIDMNRLTGGQNVMVYGQTEVTRDLMDARQQAGLTTIYEAANVAIHDFGSGKPRVTYEKDGKTHELQCDFIAGCDGFHGVCRDTVKKSASASAIREYEKVYNFGWLGLLSDTPPVHHELIYVNSERGFALCSQRSATRSRYYLQVPLTDKVEQWSDQAFWDELKLRLDPQAREHLVTGPSIEKSIAPLRSFVTEPLRFGRLFLAGDAGHIVPPAGAKGLNLAATDVKYLSAALTEFYQGKSEAGINHYSERCLKRIWRAERFSWWFTSLMHRFPENGEIGQKLQEAELDYIVHSETGARSVAENFVGLPLDFGA
B3: HgPobA-TY: mutant protein of HgPobA with two mutations T302A and Y393F (protein, listed as Hylemonella gracilis)
chain: B2 chain
B4: PaPobA: Pseudomonas aeruginosa-derived PobA (SEQ ID NO: 28), known enzyme with high PCA-hydroxylating activity (protein, listed as Pseudomonas aeruginosa)
chain: MKTQVAIIGAGPSGLLLGQLLHKAGIDNVILERQTPDYVLGRIRAGVLEQGMVDLLREAGVDRRMARDGLVHEGVEIAFAGQRRRIDLKRLSGGKTVTVYGQTEVTRDLMEAREACGATTVYQAAEVRLHDLQGERPYVTFERDGERLRLDCDYIAGCDGFHGISRQSIPAERLKVFERVYPFGWLGLLADTPPVSHELIYANHPRGFALCSQRSATRSRYYVQVPLSEKVEDWSDERFWTELKARLPSEVAEKLVTGPSLEKSIAPLRSFVVEPMQHGRLFLAGDAAHIVPPTGAKGLNLAASDVSTLYRLLLKAYREGRGELLERYSAICLRRIWKAERFSWWMTSVLHRFPDTDAFSQRIQQTELEYYLGSEAGLATIAENYVGLPYEEIE
B5: HyPobA: Hydrogenophaga sp.-derived PobA, protocatechuic acid 5-hydroxylase (SEQ ID NO: 21) (protein, listed as Hydrogenophaga sp.)
chain: MRTQVGIIGAGPAGLMLAHMLHLEGIESVIIERSKREHVQNRLRAGVLEQGTVEMMRELGLGERIGQLGLEQHRIDFRFGGESHPIDFHEATGGRSAWVYPQHEVVKDLMAARTAAGAQMLFETPVTAIEGIDGTRPVVRFEKDGVAGELHCDFVVGCDGFRGISRRAIPAREGQVHDRIYPFGWLGILAEAPPATNEVTWGCHEDGFAMMSIRTPSVTRLYLQCEPDENPDHWSDDRIWSALHKRLDVPGLPPINEGRITQKGVTAMRSFLFEPMQHGRLFLAGDAAHIVPPTGAKGLNSAMADVKVLARALEQHYQRGSQDLLARYSKTCLKRMWLVQRFSAGLCTMVHSFAGDSSFVRRLQRADLDYMTGTTAGRLQFSENFTGLPID

How the values were obtained:
[1] = Analysis of gallic acid-producing activities of purified enzymes (HPLC); type: biochemical; conditions: 2 mM PCA, 0.5 mM NADPH, 10 μg enzyme, 30° C., 30 minutes, pH 7.9
Protocol: Using the purified enzyme liquids of HyPobA, PoPobA, HgPobA-TY and PaPobA described above, the gallic acid-producing activities were analyzed.
By adding 10 μM FAD, 0.5 mM NADPH, 2 mM PCA and 10 μg of the respective purified enzyme liquids to 20 mM Tris-HCl buffer (pH 7.9), 100 μL of reaction liquids were prepared.

[2] = Reaction kinetic analysis of purified enzymes, substrate PCA (NADPH absorbance at 340 nm); type: biochemical; conditions: relative to PaPobA
Protocol: Using the purified enzyme liquids of HgPobA, HgPobA-TY, PoPobA, HyPobA and PaPobA described above, a reaction kinetic analysis was conducted.

Molecule	relative activity of producing gallic acid from PCA (PaPobA regarded as 1) [1]	kcat value for PCA compared with that of PaPobA [2]	Km value for PCA compared with that of PaPobA [2]
B1	20 times	higher kcat values than that of PaPobA	
B2		higher kcat values than that of PaPobA	
B3	eight		one third or less
B4	1 times		
B5	20 times	higher kcat values than that of PaPobA	
